Patent US6881575

Tests used:
[1] = target: T1, TAT-S216A peptide
T1 chain: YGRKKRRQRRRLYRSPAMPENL

[2] = target: T2, Cdc25C peptide (amino acid 211 to 221 of Cdc25C; LYRSPSMPENL)
T2 chain: LYRSPSMPENL

[3] = target: T3, GST-Cdc25C (amino acid 200-256)
T3 sequence (P30307 whole entry, looked up): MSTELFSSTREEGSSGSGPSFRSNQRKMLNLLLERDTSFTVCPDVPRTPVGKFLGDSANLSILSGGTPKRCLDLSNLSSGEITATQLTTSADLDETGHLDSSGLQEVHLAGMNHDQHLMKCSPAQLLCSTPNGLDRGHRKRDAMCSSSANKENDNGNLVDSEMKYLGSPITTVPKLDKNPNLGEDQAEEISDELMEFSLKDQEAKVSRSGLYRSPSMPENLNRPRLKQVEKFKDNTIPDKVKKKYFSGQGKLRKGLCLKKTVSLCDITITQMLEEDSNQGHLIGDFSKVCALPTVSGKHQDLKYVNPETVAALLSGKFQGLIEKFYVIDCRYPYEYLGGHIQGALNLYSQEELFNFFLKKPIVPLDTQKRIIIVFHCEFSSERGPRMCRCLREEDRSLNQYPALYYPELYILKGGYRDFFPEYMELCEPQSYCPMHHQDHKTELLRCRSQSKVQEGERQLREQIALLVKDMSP

[4] = target: TAT-S216 peptide

B1: HA-tagged hChk1 (peptide)
chain: LYRSPSMFENL
phosphorylation of the peptide by hChk1 [1]: TAT-S216 but not TAT-S216A was efficiently phosphorylated by hChk1 | in vitro phosphorylation of the Cdc25C peptide by hChk1 [2]: phosphorylation of Cdc25C peptide (residues 200-256) (SEQ ID NO:1) mediated by hChk1 (SEQ ID NO:3) and Chk2/HuCds1 (SEQ ID NO:4) | in vitro phosphorylation of GST-Cdc25C by immunoprecipitated hChk1 (32P-ATP, SDS-PAGE autoradiogram) [3]: hChk1 (SEQ ID NO:3) was capable of phosphorylating a Cdc25C protein (residues 20-256) (SEQ ID NO:1) fused to GST | phosphorylation of the peptide by hChk1 [4]: TAT-S216 but not TAT-S216A was efficiently phosphorylated by hChk1

B2: c-myc-tagged Chk2/HuCds1 (peptide)
chain: LYRSPSMYENL
in vitro phosphorylation of the Cdc25C peptide by Chk2/HuCds1 [2]: phosphorylation of Cdc25C peptide (residues 200-256) (SEQ ID NO:1) mediated by hChk1 (SEQ ID NO:3) and Chk2/HuCds1 (SEQ ID NO:4)
